For 167 variants, self-cleavage results are on record in the RNAGym collection of RNA variant scans (doi:10.1093/nar/gkz1192).

Sequences and labels used below:
B1: CPEB3 Ribozyme (parent)
chain: UAACAGGGGGCCACAGCAGAAGCGUUCACGUCGCAGCCCCUGUCAGAUUCUGGUGAAUCUGCGAAUUCUGCUGUAUAUCUC

The variants in the data set derive from B1. Briefly: self-cleavage, relative activity (ratio to wild type); higher = more cleavage; in vitro, sequencing. In outline:
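Relative activity was defined as the cleaved/total read fraction for a variant divided by the same fraction for the unmutated ribozyme. CPEB3 self-cleaving ribozyme libraries were made by rounds of error-prone PCR, barcoded, and transcribed in vitro with T7 RNA polymerase for 5 hours at 37°C, and cleavage ran through transcription plus a 15 min DNase I step before EDTA. Illumina sequencing of template-switched reverse transcripts gave the reads, and DNA sequencing mapped the barcodes. Averages come from three batches, using variants with at least 5 reads.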
A3G U72A: the self-cleavage was determined as 0.7.
For A3U C17G the value was 0.53.
The result for A3U C17U reads 0.5; that for A3U C17A, 0.26.
For A3U G36A the value was 0.32.
For A3C U54C, the self-cleavage was determined as 1.17.
For A3U C44U the value was 0.73; for A3U A28U, 1.13.
For A3U A28C the value was 0.91; for A3U A28G, 0.88.
For A3C U43C the value was 0.81; for A3C U43A, 1.24.
Regarding A3U G42U, the self-cleavage was 0.16.
Take A3G A5U: the self-cleavage was 1.04.
As for A3G A5C, the self-cleavage is 0.71.
In the case of A3G A5G, the self-cleavage came out at 0.76.
The result for A3U U67C reads 0.3.
Regarding A3U U67A, the self-cleavage is 0.75.
For A3U C11G the value was 0.4; for A3C U72A, 1.09; for A3U C4U, 1.17.
Consider A3U C4A, for which the self-cleavage came to 1.22.
The result for A3U U43G reads 0.34; that for A3U U43C, 0.77.
The result for A3U U43A reads 0.77.
The result for A3C G46A reads 0.25; that for A3C U67C, 0.33; that for A3G G70A, 0.69.
With A3G G73A, the self-cleavage was found to be 1.22.
For A3G G55U the value was 1.12.
For A3G U51G the value was 0.98; for A3G U51C, 0.94; for A3G U51A, 1.
For A3G A21G the value was 0.73.
For A3G A21U, the self-cleavage was 0.49.
For A3G C59A the value was 0.62; for A3G C59U, 0.74; for A3G A47G, 0.92.
The result for A3G A47U reads 0.48; that for A3C U25A, 0.4.
Consider A3C U25C, for which the self-cleavage worked out at 0.44.
For A3C U25G the value was 0.55.
For A3G U49A, the self-cleavage was determined as 0.69.
For A3G U49C the value was 0.49; for A3G G33C, 0.31; for A3G G33A, 0.38.
Regarding A3G G33U, the self-cleavage stood at 0.11.
Consider A3G C11A, for which the self-cleavage was 0.32.
The result for A3G C11G reads 0.54; that for A3G C11U, 0.51.
For A3G U25C the value was 0.42.
The result for A3G U25A reads 0.63; that for A3G U25G, 0.45.
With A3G A20U, the self-cleavage amounted to 0.41.
For A3G A20C the value was 0.75; for A3G A20G, 0.86; for A3U A47G, 1.17.
The result for A3U A47U reads 0.71; that for A3U A47C, 0.69; that for A3G C29A, 0.58.
The result for A3G C29U reads 0.59; that for A3G C29G, 0.43; that for A3U U41A, 0.31.
Consider A3U U41C, for which the self-cleavage worked out at 1.05.
For A3G C32G the value was 0.17.
The result for A3G C32A reads 0.14; that for A3G C32U, 0.45.
As for A3U A56G, the self-cleavage was determined as 0.63.
For A3U A15U the value was 1.06; for A3U A15G, 0.83; for A3C G24A, 0.29.
For A3U G63U the value was 1.19; for A3U G63A, 1.03; for A3U A5U, 1.18.
In the case of A3U A5G, the self-cleavage worked out at 0.79.
The result for A3G G22U reads 0.15.
For A3G G22A the value was 0.29.
On to A3U A45G, for which the self-cleavage worked out at 1.03.
For A3U A45U the value was 0.73; for A3C U60C, 0.83.
For A3U A20G the value was 0.94; for A3U A20U, 0.45; for A3U A20C, 0.21.
The result for A3G U80G reads 1.12; that for A3G U80A, 1.11; that for A3G U80C, 1.07.
Turning to A3G C14A, the self-cleavage was determined as 1.13.
For A3G C14U the value was 1.12.
For A3G G61A the value was 0.53; for A3G G61U, 0.8.
For A3G U67C the value was 0.33; for A3G U67A, 0.52; for A3G U67G, 0.37.
With A3G A64U, the self-cleavage is 0.45.
The result for A3G A64G reads 0.92.
The result for A3G G19U reads 0.41; that for A3G G63C, 1.06.
For A3G G63U the value was 1.12.
As to A3G G63A, the self-cleavage is 0.75.
Consider A3U A64U, for which the self-cleavage was found to be 0.69.
Consider A3U A64G, for which the self-cleavage was 1.06.
For A3U C27U the value was 0.6.
For A3G U31C the value was 0.84; for A3G U31G, 0.76.
As for A3G U31A, the self-cleavage came out at 0.61.
The result for A3U C68G reads 0.44; that for A3U C68A, 0.44.
Take A3G A45G: the self-cleavage is 0.78.
For A3G A45U, the self-cleavage amounted to 0.4.
The result for A3G G10A reads 0.46; that for A3G G10C, 0.35; that for A3U, 1.06.
The result for A3G reads 1.02.
The result for A3G A15G reads 0.84; that for A3G A15C, 0.95.
On to A3G A15U, for which the self-cleavage stood at 0.78.
For A3G G9C the value was 0.6; for A3G G9A, 0.53.
With A3G G9U, the self-cleavage stood at 0.34.
The result for A3G G46C reads 0.39.
The result for A3G G46A reads 0.13; that for A3U G6U, 0.59; that for A3U G6A, 0.62.
The result for A3G A75G reads 1.
Regarding A3G A75U, the self-cleavage is 1.12.
For A3G A75C the value was 1.07; for A3G C40U, 0.64.
For A3G C40G the value was 0.5; for A3G C40A, 0.32.
In the case of A3G A56C, the self-cleavage amounted to 0.8.
The result for A3G A56G reads 0.77; that for A3G A56U, 0.64.
The result for A3G G7U reads 0.45; that for A3G G7A, 0.47.
For A3U U54C the value was 1.04.
Turning to A3U U54A, the self-cleavage was 1.19.
The result for A3G A57G reads 0.86; that for A3G A57C, 0.49.
A3G A57U: the self-cleavage stood at 0.69.
For A3U A35U the value was 0.77.
For A3U A35G the value was 1.28; for A3G C71G, 0.57.
As for A3G C71U, the self-cleavage was found to be 0.64.
The result for A3G C71A reads 0.27.
As to A3G C34G, the self-cleavage was 0.43.
As for A3G C34A, the self-cleavage was 0.2.
Regarding A3G C34U, the self-cleavage stood at 0.25.
On to A3U C34U, for which the self-cleavage was determined as 0.51.
For A3G U48G the value was 0.54; for A3G U48A, 0.37; for A3G U48C, 0.61.
For A3G A35U the value was 0.64; for A3G A35G, 1.21; for A3G A35C, 0.9.
For A3U G61A, the self-cleavage amounted to 1.01.
For A3U G61C the value was 0.5; for A3G G52A, 1.14; for A3G G52U, 1.14.
For A3U G7C the value was 0.35; for A3U G7U, 0.13; for A3U G7A, 0.47.
For A3U G73C the value was 1.25; for A3U G52A, 1.1.
With A3G G53A, the self-cleavage is 1.02.
For A3G G53C the value was 1.13; for A3U U49C, 0.51.
Regarding A3U U49A, the self-cleavage was 0.47.
